Assay results as given in US20200223906A1 (Adimab, published 2020).
Where a chain is given by its changes, count along the chain named.

B1: ADI-18953 (antibody, V domains shown)
VH: QVQLVQSGAEVKKPGSSVKVSCKASGGTFSGYAINWVRQAPGQGLEWMGGIIHIFGTVNYAPKFQGRLTITADASTGTAYMELSSLMSEDTALYYCARDAYEVWTGSYLPPFDYWGQGTLVTVSS
VL: ETTLTQSPGTLSLSPGERVTLSCRASQTVTSNYLAWYQQKPGQAPRLLIYDAFTRATGVPARFSGSGSGTDFTLTISRLEPEDFAVYYCQQYGSSFLTFGGGTKVEIK
notes: full-length IgG from yeast
B2: ADI-18932 (antibody, V domains shown)
VH: QVQLQESGPGLVRPSQTLSLTCSASGAAINSGDYYWSWIRQAPGRGLEWIGSISNRGVTDYNPSLKSRVIISADTSKNQFSLRLTSVTATDTAVYYCARDLGTLAFDPYYYYGIDVWGQGTTVTVSS
VL: DIRMTQSPATLSLSPGERATLSCRASQSVSRHLAWYQQKPGQAPRLLIYDASYRVTGVPDRFSGSGSGTDFTLTISSLESEDFAIYFCQQRSTWPTFGQGTKVEIK
notes: full-length IgG from yeast
B3: ADI-18935 (antibody, V domains shown)
VH: QVQLQESGPGLVKPSQTLSLTCTVSGRLLSSGDYYWSWIRQSPGRGLEWIGYVYHSGTTSYNPSLKSRITMTVDTSKNQFNLRLTSVTAADTAVYYCARDLGYSSSSPAFYYGIDFWGPGTMVTVSS
VL: EIVLTQSPATLSLSPGQRATLSCRASQSVGNYLAWYQQKPGQAPRLLIYDASNRVTGIPARFSGSGSGTDFTLTISRLESEDFAVYYCQQRSNGVLTFGGGTKVDIK
notes: full-length IgG from yeast
B4: ADI-18883 (antibody, V domains shown)
VH: QVQLVQSGPEVKKPGSSVTVSCKASGGTFSNYGIAWVRQAPGQGLEWMGSTIPILGTASYRQSLKDRVTITADASTTTVYMEMTRLRTEDTAVYFCARVPESLVASNAYAVWGQGTVVTVSS
VL: DIQMTQSPSSVSASVGDRVTITCRASQDISTWLAWYQQRPGKAPKLLIYTASSLQSGVPSRFSGSGSGTEFTLTISSLQPEDFATYYCQQGTSFPFTFGPGTKLEIK
notes: full-length IgG from yeast
B5: ADI-18966 (antibody, V domains shown)
VH: QVQLVQSGGGVVQPGRSLRLSCAASGFTFRNYGMHWVRQAPGKGLEWVAAASYDGSSKYFADAVKGRFSISRDNTKNTLSLQMTSLRAEDTAVYYCARDPGVGSYYNVVGMDVWGQGTTVTVSS
VL: DIRLTQSPLSLPVTLGQPASISCRSSQSLVYSDGNTYLNWFQQRPGQSPRRLIYRVSHRDSGVPDRFSGSESGTDFTLKISRVEAEDVGVYYCMQGTHWPPTFGQGTKVEIK
notes: full-length IgG from yeast
B6: ADI-18960 (antibody, V domains shown)
VH: QVQLQESGPGLVKPSETLSLTCSVSGGSITNVNYYWGWIRQPPGKGLEWIGSIYYNGNTYYNPSLQSRVTMSVDTSKNHFSLRLTSVTAADTAVYFCAREGPNWELLNAFDIWGQGTTVTVSS
VL: DIQVTQPPSVSVAPGQTARITCGGNNIGSKNVHWYQQKPGRAPVLVVYEDTHRPSGIPERFSGSNSGNTATLTISRVEAGDEADYYCQVWDTSSDHVVFGGGTKLTVL
notes: full-length IgG from yeast; also called Antibody Number 311; Ab # 311
B7: ADI-18882 (antibody, V domains shown)
VH: QVQLVQSGAEVKKPGSSVRVSCKASGGTFRGYGLSWVRQAPGQGLEWMGGITHLFGTVSYAPKFQGRLTITADASTGTAYMELSSLISEDTAVYFCARDAYEVWTGSYLPPFDYWGQGTMVTVSS
VL: DIVMTQSPGTLSLSPGERVTLSCRASQIIPSSYLAWYQQKPGQAPRLLIYGAFTRATDIPDRFSGSGSGTDFTLTISRLEPEDFAVYYCQQYGSSFLTFGGGTKVEIK
notes: full-length IgG from yeast
B8: ADI-18880 (antibody, V domains shown)
VH: QVQLVQSGSEVKKPGAAVKVSCKASGYIFANFGVSWVRQAPGQGLEWMGWISAYNGNTNYAQKFQGRVIMTTDTSTSTAYMELRSLRSDDTAVYYCARDPPAYAATLMDVWGKGTTVTVSS
VL: EIVLTQSPLSLPVTLGQSASISCRSSQSLEHSDTNTYLTWYQQRPGQSPRRLLYKVSNRDSGVPDRFSGSGSGTDFTLKISRVEAEDVGVYYCMQGTHWPPTFGQGTKVDIK
notes: full-length IgG from yeast
B9: ADI-18904 (antibody, V domains shown)
VH: B8 VH with Q1E, Q6E
VL: B8 VL with E1D, L4M, V109L, D110E
notes: full-length IgG from yeast; also called Antibody Number 259; Ab # 259
B10: ADI-18939 (antibody, V domains shown)
VH: QVQLQQWGAGLLKPSETLSLTCAVYGGSFSGYSWSWIRQSPGKGLEWIGEINHRGSTNYNPSLKSRVTISVDTSKNQFSLKLSSVTAADTAVYYCAGTNYGEVNTSNQYFFGMDVWGQGTTVTVSS
VL: DIRLTQSPSSLSASVGDRVTITCRASQSITTYLNWYQQKPGKAPKLLIYAASNLESGVPSSFSGSGFGTDFTLTISSLQPDDFATYYCQQSYSAPLTFGGGTKVDIK
notes: full-length IgG from yeast; also called Antibody Number 292; Ab # 292
B11: ADI-18936 (antibody, V domains shown)
VH: EVQLLESGAEVKKPGASVRVSCKASGYTFTDYFMNWVRQAPGGGLEWMGWVNPLSGATKYAQKFQGRVTMTTDTSITTGYLDLRSLRVDDTAIYFCASQSSPYTPGAMGVWGQGTTVTVSS
VL: DIQVTQSPSSLSASVGDRVTITCRASQSISGYLSWYQQKPGKAPNLLIYATSNLYSGVPSRFSGRDSGTDFTLTITSLQPEDFATYFCQLNSGALFTFGPGTKVEIK
notes: full-length IgG from yeast
B12: ADI-18958 (antibody, V domains shown)
VH: QVQLQESGAEVKMRGASVKVSCKASGYTFSHYGISWVRQAPGQGLEWMGFISAYNHNTKYAQTVQGRVTLSTDTSTSTAYMELRSLRPDDTAMYYCAREPPSDDAARLFDYWGQGTLVTVSS
VL: ETTLTQSPRSLPVTLGQPASISCRSSQSLVYSEGNTYLSWFQQRPGQSPRRLIYKVSNRDSGVPDRFSGSGSGTDFTLKISRVEAEDVGVYYCMQGTQWPVTFGQGTKVEIK
notes: full-length IgG from yeast
B13: ADI-18937 (antibody, V domains shown)
VH: QVQLQESGPGLVKPSQTLSLTCTVSGPSISAGDYNWNWIRQAPGKGLEWVGYIDYRGLTHYNPSLKGRLSILMDRSANQFSLELNSVTAADTAVYYCARDVGVYSGYDVFHYYGMDVWGQGTTVTVSS
VL: ETTLTQSPVTLSLSPGERATLSCRASQYVRNNYLAWYQHKPGQAPRLLIYSASSRVTGTPDRFSGSGSGTDFTLTISRLEPEDFAVYYCQQYGGSPPVTFGPGTKVDIK
notes: full-length IgG from yeast; also called Antibody Number 290; Ab # 290

How the values were obtained:
[1] = target: T1, RSV F subtype A, furin-cleaved ectodomain stabilized in the prefusion conformation (DS-Cav1) (Respiratory syncytial virus subtype A, UniProt P03420 26-524); assay: BLI, IgG on AHQ sensor, 100 nM antigen
T1 construct: extracellular domain; Trimeric soluble antigen; also called Prefusion subtype A

[2] = target: T2, RSV F subtype B, furin-cleaved ectodomain stabilized in the prefusion conformation (DS-Cav1) (Respiratory syncytial virus subtype B); assay: BLI, IgG on AHQ sensor, 100 nM antigen
T2 construct: extracellular domain; Trimeric soluble antigen; also called Prefusion subtype B

[3] = target: RSV F protein of subtype A (strain A2) on recombinant mKate-RSV virus (Respiratory syncytial virus subtype A …, UniProt P03420 26-574); assay: cell-based or functional assay
[4] = target: RSV F protein of subtype B (18537) on recombinant mKate-RSV virus (Respiratory syncytial virus subtype B …, UniProt P13843 26-574); assay: cell-based or functional assay

Row | Binder | Kd [1] | Kd [2] | Neut IC50 (µg/ml) subtype A [3] | Neut IC50 (µg/ml) subtype B [4]
1 | B1 | 0.513 nM | 0.421 nM | 0.034 µg/mL | 0.022 µg/mL
2 | B2 | 0.917 nM | 1.39 nM | 0.184 µg/mL | 0.351 µg/mL
3 | B3 | 0.66 nM | 0.582 nM | 0.779 µg/mL | 0.355 µg/mL
4 | B4 | 0.431 nM | 0.566 nM | 0.041 µg/mL | 0.05 µg/mL
5 | B5 | 0.578 nM | 0.562 nM | 0.044 µg/mL | 0.13 µg/mL
6 | B6 | 0.178 nM | 0.183 nM | 0.034 µg/mL | 0.107 µg/mL
7 | B7 | 0.427 nM | 0.476 nM | 0.041 µg/mL | 0.057 µg/mL
8 | B8 | 0.255 nM | 0.304 nM | 0.041 µg/mL | 0.055 µg/mL
9 | B9 | 0.251 nM | 0.237 nM | 0.018 µg/mL | 0.089 µg/mL
10 | B10 | 0.574 nM | 0.56 nM | 0.018 µg/mL | 0.038 µg/mL
11 | B11 | 0.303 nM | 0.298 nM | 0.032 µg/mL | 0.035 µg/mL
12 | B12 | 0.286 nM | 0.302 nM | 0.587 µg/mL | 3.36 µg/mL
13 | B13 | 0.289 nM | 0.273 nM | 0.084 µg/mL | 0.508 µg/mL
